Experimental findings from patent US20130230533A1 (Regeneron, published 2013) are described below.

One may read the Kd as the free concentration of one partner at which half of the binding sites on the other are occupied at equilibrium, for simple one-to-one binding. Usually koff stands for the first-order rate constant of dissociation. By kon is commonly meant a measure of how fast the partners come together.

Residue numbers refer to the chain shown, from its start. Numbers in names are those of the source.

The labels stand for the following.
T1: human CD48 (on primary human peripheral blood mononuclear cells) (human, UniProt P09326 27-220)
T1 sequence: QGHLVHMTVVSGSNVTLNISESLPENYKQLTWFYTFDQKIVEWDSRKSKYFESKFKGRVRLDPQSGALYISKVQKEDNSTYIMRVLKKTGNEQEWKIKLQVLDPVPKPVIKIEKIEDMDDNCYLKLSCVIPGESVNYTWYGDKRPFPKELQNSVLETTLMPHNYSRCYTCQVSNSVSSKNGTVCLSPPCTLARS

T2: Dimeric human CD48-mFc (human)
T2 construct: the whole entry is the construct; also called hCD48-mFc
T2 chain: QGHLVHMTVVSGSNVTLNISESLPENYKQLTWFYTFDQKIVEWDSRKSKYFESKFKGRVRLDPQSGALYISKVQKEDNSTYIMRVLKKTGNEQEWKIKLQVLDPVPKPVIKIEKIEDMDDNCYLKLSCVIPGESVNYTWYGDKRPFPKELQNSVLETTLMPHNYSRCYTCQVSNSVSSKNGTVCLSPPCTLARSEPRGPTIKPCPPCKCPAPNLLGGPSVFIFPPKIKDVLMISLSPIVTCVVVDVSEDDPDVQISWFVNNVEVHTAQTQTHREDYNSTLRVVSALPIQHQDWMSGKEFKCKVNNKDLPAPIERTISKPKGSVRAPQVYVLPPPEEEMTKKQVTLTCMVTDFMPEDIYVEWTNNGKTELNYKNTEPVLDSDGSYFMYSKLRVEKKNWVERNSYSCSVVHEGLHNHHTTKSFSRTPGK

T3: Monomeric monkey CD48-mmH (monkey)
T3 construct: Soluble monkey CD48 with a myc-myc-hexa-histidine C-terminal tag; the whole entry is the construct; also called mfCD48-mmH
T3 chain: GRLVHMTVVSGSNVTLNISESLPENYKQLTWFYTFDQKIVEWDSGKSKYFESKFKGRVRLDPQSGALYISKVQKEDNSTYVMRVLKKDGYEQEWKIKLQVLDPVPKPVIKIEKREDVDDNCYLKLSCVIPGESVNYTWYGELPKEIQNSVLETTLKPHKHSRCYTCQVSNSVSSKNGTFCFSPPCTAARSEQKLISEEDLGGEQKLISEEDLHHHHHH

T4: Dimeric monkey CD48-mFc (monkey)
T4 construct: Soluble monkey CD48 with a C-terminal Fc fusion [mFc]; the whole entry is the construct
T4 chain: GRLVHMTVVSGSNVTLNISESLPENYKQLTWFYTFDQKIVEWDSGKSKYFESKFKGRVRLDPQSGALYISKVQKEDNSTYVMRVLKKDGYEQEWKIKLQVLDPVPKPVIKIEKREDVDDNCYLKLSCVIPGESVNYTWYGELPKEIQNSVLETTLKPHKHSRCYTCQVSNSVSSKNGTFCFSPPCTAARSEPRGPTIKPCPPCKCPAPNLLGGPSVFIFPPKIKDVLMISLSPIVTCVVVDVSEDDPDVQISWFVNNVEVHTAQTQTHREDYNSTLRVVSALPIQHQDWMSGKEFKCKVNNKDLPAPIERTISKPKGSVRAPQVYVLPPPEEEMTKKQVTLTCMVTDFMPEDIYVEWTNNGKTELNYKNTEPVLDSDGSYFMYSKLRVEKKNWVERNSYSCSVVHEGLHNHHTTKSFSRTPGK

T5: Monomeric human CD48-mmH (human)
T5 chain: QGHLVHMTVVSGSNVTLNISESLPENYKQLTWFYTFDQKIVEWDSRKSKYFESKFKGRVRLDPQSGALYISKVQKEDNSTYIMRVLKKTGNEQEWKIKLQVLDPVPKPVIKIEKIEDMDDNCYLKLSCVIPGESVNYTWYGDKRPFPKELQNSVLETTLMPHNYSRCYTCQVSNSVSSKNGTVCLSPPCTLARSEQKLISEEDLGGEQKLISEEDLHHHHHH

B1: H4H1769Pa (antibody, human IgG4, V domains shown)
VH: QVQLVQSGAEVKKPGASVKVSCKTSGYTFAGYGITWVRQAPGRGLEWMGWVSAYNGDTDYAQSLQGRVTMTTDTSTSTAYMELRSLRSDDTAMYYCARDRYSSSSGYFDYWGQGTLVTVSS
VL: DIQMTQSPSSVSASVGDRVTITCRASQGISSWLAWHQQKPGKAPKVLIYAASSLHSGVPSRFSGSGSGTEFTLTISSLQPEDFATYYCQQANTFPYTFGQGTKLEIK
B2: H4H1781P (antibody, human IgG4, V domains shown)
VH: QVQLVESGGGVVQPGRSLRLSCAASGFTFSNYGMHWVRQAPGKGLEWVAVIWYDDSNKNYADSVKGRFTISRDNSKNTLYLQMNSLRVEDTAVYYCARDRWTYSHFFEYWGQGTLVTVSS
VL: DIQMTQSPSSVSASVGDRVTITCRASQGISSWLAWYQQKPGKAPNLLIYAASSLQSGVPSRFGGSGSGTDFSLTISGLQPEDFATYYCQQANSFPRTFGQGTKVEIK
notes: Human IgG4 Fc (H4H)
B3: H4H1789Pa (antibody, V domains shown)
VH: EVQLLESGGGLVHPGGSLRLSCAASGFTFGGYAMSWVRQAPGKGLEWVSLISGSGGSTYYADSVKGRFTIFRDNSKNTLYLQMISLRAEDSAVYYCAKYSNYDYFDPWGQGTLVTVSS
VL: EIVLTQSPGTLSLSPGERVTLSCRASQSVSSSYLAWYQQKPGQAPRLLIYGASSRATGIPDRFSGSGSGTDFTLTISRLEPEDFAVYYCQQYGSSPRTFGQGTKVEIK
notes: Human IgG4 Fc (H4H)
B4: H4H1778P (antibody, human IgG4, V domains shown)
VH: B2 VH with D55E, N57S, N59Y, A61T, K76Q, N84T, V88A, F106Y
VL: B2 VL with L33V, N45K, G63S, S72T, G77S
notes: Human IgG4 Fc (H4H)
B5: H4H1779P (antibody, human IgG4, V domains shown)
VH: B2 VH with D55E, N57S, N59H, K76Q, N84T, V88A, F106Y
VL: B2 VL with G28D, L33V, N45K, G63S, S72T, G77S
notes: Human IgG4 Fc (H4H)

One assay concerns the target T1, human CD48 (on primary human peripheral …). The experiment in a line: cell-based or functional assay.
As for B1, the “Inhibition of IFN-gamma Release IC50; Donor 9” value came out at 5.7e-12 Molar and the “Inhibition of IFN-gamma Release IC50; Donor 11” value was found to be 1.9e-11 Molar.

Another assay concerns the target T2, Dimeric human CD48-mFc. Nature of the assay: SPR (Biacore), antibody captured by anti-Fc, CD48 in solution, 37 C. A digest of the protocol:
(§1)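 Antibodies (mouse or human IgG4 Fc) captured on anti-Fc surface; soluble CD48, monomeric (myc-myc-His tag) or dimeric (Fc fusion), injected at several concentrations. ka and kd from kinetic fits; KD=kd/ka, t½=ln2/kd.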
(SPR reads the build-up and loss of mass on a sensor chip optically.)
Consider B2, for which the Kd worked out at 0.0603 nM, the T½ worked out at 3.93 h, the koff is 4.89e-05 s⁻¹ and the kon stood at 812000 M⁻¹ s⁻¹.

For B3, the affinity, expressed as Kd, was 0.161 nM; the T½ was 5.4 h; the koff was found to be 3.57e-05 s⁻¹; the kon was determined as 221000 M⁻¹ s⁻¹.

Turning to B4, the dissociation constant (Kd) came out at 0.0746 nM, the T½ came to 5.45 h, the koff was found to be 3.53e-05 s⁻¹ and the kon came out at 473000 M⁻¹ s⁻¹.

Molecule B5 came in with an equilibrium dissociation constant (Kd) of 0.0594 nM, a T½ of 4.2 h, a koff of 4.59e-05 s⁻¹ and a kon of 772000 M⁻¹ s⁻¹.

For the next assay, the target named is T3, Monomeric monkey CD48-mmH. Described as above. The method in brief: as §1
In the case of B2, the affinity, expressed as Kd, was 0.875 nM; the T½ came to 0.633 h; the off-rate constant (koff) stood at 0.000307 s⁻¹; the on-rate constant (kon) was determined as 350000 M⁻¹ s⁻¹.

As to B3, binding was characterised by a dissociation constant (Kd) of 4.71 nM, the T½ came to 0.1 h, the koff was found to be 0.00206 s⁻¹ and the kon was determined as 437000 M⁻¹ s⁻¹.

On to B4, for which binding was put at a Kd of 1.34 nM, the T½ turned out to be 0.767 h, the dissociation rate constant (koff) came out at 0.000253 s⁻¹ and the kon was 189000 M⁻¹ s⁻¹.

As for B5, the Kd amounted to 1.04 nM, the T½ stood at 0.667 h, the koff stood at 0.000289 s⁻¹ and the kon is 277000 M⁻¹ s⁻¹.

The next assay addresses T4, Dimeric monkey CD48-mFc. The description is as above. A digest of the protocol: as §1
On to B2, for which the Kd is 0.0755 nM, the T½ is 2.92 h, the koff is 6.61e-05 s⁻¹ and the kon was determined as 875000 M⁻¹ s⁻¹.

The molecule B3 returned a Kd of 0.776 nM, a T½ of 0.25 h, a koff of 0.000768 s⁻¹ and a kon of 990000 M⁻¹ s⁻¹.

B4 showed a Kd of 0.0686 nM, a T½ of 5.35 h, a koff of 3.6e-05 s⁻¹ and a kon of 525000 M⁻¹ s⁻¹.

For B5, binding was characterised by a dissociation constant (Kd) of 0.0829 nM, the T½ amounted to 3.22 h, the koff turned out to be 5.98e-05 s⁻¹ and the kon turned out to be 721000 M⁻¹ s⁻¹.

In the next assay the target is T5, Monomeric human CD48-mmH. The description is as above. The method in brief: as §1
As to B2, the Kd amounted to 0.448 nM, the T½ was found to be 1.9 h, the koff is 0.000101 s⁻¹ and the kon came to 226000 M⁻¹ s⁻¹.

In the case of B3, the Kd came out at 8.97 nM, the T½ was 0.1 h, the koff worked out at 0.00179 s⁻¹ and the kon came out at 199000 M⁻¹ s⁻¹.

Molecule B4 registered a Kd of 0.837 nM, a T½ of 1.7 h, a koff of 0.000113 s⁻¹ and a kon of 135000 M⁻¹ s⁻¹.

The molecule B5 gave a Kd of 0.495 nM, a T½ of 1.88 h, a koff of 0.000102 s⁻¹ and a kon of 207000 M⁻¹ s⁻¹.

The next assay deals with T3, Monomeric monkey CD48-mmH. Nature of the assay: SPR (Biacore), antibody captured by anti-Fc, CD48 in solution, 25 C. As to the method: (§2) Measurements were conducted on a T100-2 BIACORE™ instrument (Biacore Life Sciences division of GE Healthcare, Piscataway, N.J.). Antibodies (either with mouse Fc [designated “H2M” or “H3M”] or human IgG4 Fc [designated “H4H”]) were captured through an anti-Fc chip surface, and CD48 was flowed over the surface either in a monomeric (soluble CD48 expressed with a myc-myc-hexa-histidine C-terminal tag [mmH]) or dimeric (soluble CD48 expressed with a C-terminal Fc fusion [mFc]) format.
(§3) The soluble CD48 was applied to the flow cell in separate injections at different concentrations, and kinetic association (kₐ) and dissociation (kd) rate constants were determined by fits to the kinetic binding data using Biacore software. Binding dissociation equilibrium constants and dissociation half-times were calculated from the kinetic rate constants as: KD=kd/kₐ; t_{1/2}=(ln 2/kd) (units: ka=M⁻¹*s⁻¹; kd=s⁻¹; KD=M; T½=min) (Tables 3-6).
B2 displayed a Kd of 0.262 nM, a T½ of 2.47 h, a koff of 7.8e-05 s⁻¹ and a kon of 298000 M⁻¹ s⁻¹.

The molecule B3 registered a Kd of 3.31 nM, a T½ of 0.133 h, a koff of 0.00138 s⁻¹ and an on-rate constant (kon) of 416000 M⁻¹ s⁻¹.

In the case of B4, the Kd was found to be 0.325 nM, the T½ came out at 2.15 h, the koff was 8.98e-05 s⁻¹ and the kon is 276000 M⁻¹ s⁻¹.

B5 registered a Kd of 0.375 nM, a T½ of 1.7 h, a koff of 0.000113 s⁻¹ and a kon of 301000 M⁻¹ s⁻¹.

In the next assay the target is T4, Dimeric monkey CD48-mFc. The assay is described as above. As to the method: as §2, §3
B2: binding was put at a Kd of 0.0356 nM, the T½ is 9.03 h, the koff stood at 2.13e-05 s⁻¹ and the kon was 599000 M⁻¹ s⁻¹.

With B3, the Kd amounted to 0.423 nM, the T½ amounted to 0.7 h, the koff turned out to be 0.000276 s⁻¹ and the kon was 651000 M⁻¹ s⁻¹.

As to B4, binding was put at a Kd of 0.046 nM, the T½ amounted to 10.9 h, the koff is 1.77e-05 s⁻¹ and the kon stood at 384000 M⁻¹ s⁻¹.

In the case of B5, the Kd came out at 0.0606 nM, the T½ is 6.07 h, the koff came out at 3.17e-05 s⁻¹ and the kon was 522000 M⁻¹ s⁻¹.

For a further assay, the target named is T1, human CD48 (on primary human peripheral …). The experiment in a line: cell-based or functional assay. This is another data set of the same source.
Regarding B1, the “% Blockade of IFNγ release, MLR; D2” value amounted to 60%; the “% Blockade of IFNγ release, MLR; D3” value worked out at 39%; the “% Blockade of IFNγ release, MLR; D5” value was found to be 43%; the “% Blockade of IFNγ release, MLR; D6” value worked out at 60%. Besides, the “% Blockade of IFNγ release, MLR; D7” value worked out at 51% and the “% Blockade of IFNγ release, MLR; D8” value came to 40%.
